Data from EP3211087A1 (National University Corporation Nagoya University, dated 2017).

B1: human Caveolin 1 (CAV1) (other, UniProt Q03135 2-178, looked up)
chain: SGGKYVDSEGHLYTVPIREQGNIYKPNNKAMADELSEKQVYDAHTKEIDLVNRDPKHLNDDVVKIDFEDVIAEPEGTHSFDGIWKASFTTFTVTKYWFYRLLSALFGIPMALIWGIYFAILSFLHIWAVVPCIKSFLIEIQCISRVYSIYVHTVCDPLFEAVGKIFSNVRINLQKEI
notes: whole, on cells; Endogenous protein in cell extracts, or full-length cDNA expressed from pCMV-puro in COS-7 cells for IP-WB; also called CAV1-WT; pCMVpuro-CAV1
B2: human Cavin-1 (other, UniProt Q6NZI2 1-390, looked up)
chain: MEDPTLYIVERPLPGYPDAEAPEPSSAGAQAAEEPSGAGSEELIKSDQVNGVLVLSLLDKIIGAVDQIQLTQAQLEERQAEMEGAVQSIQGELSKLGKAHATTSNTVSKLLEKVRKVSVNVKTVRGSLERQAGQIKKLEVNEAELLRRRNFKVMIYQDEVKLPAKLSISKSLKESEALPEKEGEELGEGERPEEDAAALELSSDEAVEVEEVIEESRAERIKRSGLRRVDDFKKAFSKEKMEKTKVRTRENLEKTRLKTKENLEKTRHTLEKRMNKLGTRLVPAERREKLKTSRDKLRKSFTPDHVVYARSKTAVYKVPPFTFHVKKIREGQVEVLKATEMVEVGADDDEGGAERGEAGDLRRGSSPDVHALLEITEESDAVLVDKSDSD
notes: whole, on cells; Endogenous protein in cell extracts, or full-length cDNA expressed from pCMV-puro in COS-7 cells for IP-WB; also called Cavin-1-WT; pCMVpuro-Cavin-1
B3: Cavin-2 (other, human, UniProt O95810 2-425, looked up)
chain: GEDAAQAEKFQHPGSDMRQEKPSSPSPMPSSTPSPSLNLGNTEEAIRDNSQVNAVTVLTLLDKLVNMLDAVQENQHKMEQRQISLEGSVKGIQNDLTKLSKYQASTSNTVSKLLEKSRKVSAHTRAVKERMDRQCAQVKRLENNHAQLLRRNHFKVLIFQEENEIPASVFVKQPVSGAVEGKEELPDENKSLEETLHTVDLSSDDDLPHDEEALEDSAEEKVEESRAEKIKRSSLKKVDSLKKAFSRQNIEKKMNKLGTKIVSVERREKIKKSLTSNHQKISSGKSSPFKVSPLTFGRKKVREGESHAENETKSEDLPSSEQMPNDQEEESFAEGHSEASLASALVEGEIAEEAAEKATSRGSNSGMDSNIDLTIVEDEEEESVALEQAQKVRYEGSYALTSEEAERSDGDPVQPAVLQVHQTS
notes: whole, on cells; Detected with anti-Cavin-2 (Abcam) in IP-WB of cell extracts

Assays:
[1] = target: T1, human ROR1 (receptor tyrosine kinase-like orphan receptor 1) (human, UniProt Q01973 30-937); test: legend of FIGS. 4(3) and (4): IP-WB, NCI-H1975 and SK-LU-1
T1 construct: whole, on cells; also called ROR1-WT; endogenous ROR1
T1 sequence (Q01973 30-937): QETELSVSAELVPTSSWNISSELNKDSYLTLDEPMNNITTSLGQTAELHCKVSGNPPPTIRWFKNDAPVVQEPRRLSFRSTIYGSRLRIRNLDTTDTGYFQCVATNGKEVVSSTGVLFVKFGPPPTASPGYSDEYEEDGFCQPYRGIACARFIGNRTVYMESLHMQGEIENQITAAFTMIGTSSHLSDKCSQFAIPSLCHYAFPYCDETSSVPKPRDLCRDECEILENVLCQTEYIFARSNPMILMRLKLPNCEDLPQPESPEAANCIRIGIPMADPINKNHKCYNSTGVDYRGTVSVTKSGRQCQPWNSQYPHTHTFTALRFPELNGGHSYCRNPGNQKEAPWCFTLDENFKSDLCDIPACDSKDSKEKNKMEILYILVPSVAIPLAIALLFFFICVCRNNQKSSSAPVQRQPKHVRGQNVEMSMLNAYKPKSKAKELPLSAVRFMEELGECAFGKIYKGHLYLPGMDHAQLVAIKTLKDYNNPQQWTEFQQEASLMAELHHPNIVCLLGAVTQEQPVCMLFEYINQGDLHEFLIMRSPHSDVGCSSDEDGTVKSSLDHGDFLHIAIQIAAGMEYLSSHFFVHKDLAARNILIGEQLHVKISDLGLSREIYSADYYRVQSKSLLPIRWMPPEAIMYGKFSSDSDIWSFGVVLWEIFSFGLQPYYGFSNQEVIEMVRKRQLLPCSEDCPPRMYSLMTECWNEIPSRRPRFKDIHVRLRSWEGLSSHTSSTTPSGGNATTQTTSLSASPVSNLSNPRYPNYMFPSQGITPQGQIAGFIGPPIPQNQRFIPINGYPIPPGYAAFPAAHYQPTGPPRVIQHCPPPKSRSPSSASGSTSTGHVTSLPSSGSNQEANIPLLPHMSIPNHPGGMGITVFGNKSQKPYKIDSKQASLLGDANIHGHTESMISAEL

human Cavin-1 = target: B2; test: legend of FIG. 4(6): IP-WB
[2] = target: T1, human ROR1 (receptor tyrosine …); test: IP-WB of octyl glucoside cell extracts, NCI-H1975 and SK-LU-1

| binding result [1] | binding result (human Cavin-1) | binding result [2] | Binder |
| --- | --- | --- | --- |
| binds | binds |  | B1 |
|  |  | binds | B2 |
|  |  | no binding | B3 |
